Laboratory results: publication PMC8597827, “The effect of S427F mutation on RXRα activity depends on its dimeric partner†”

Biological target: RXRα S427F (human, UniProt P19793 1-462, S427F)
Experiment: EMSA; no ligand; binds as well as WT; two shifts; competed by 5x and 25x unlabeled DR1; 10 mM Tris HCl pH 8.0, 150 mM KCl, 0.5 mM EDTA, 0.1% Triton X-100, 12.5% glycerol, 0.2 mM DTT, 1 ug poly(dI-dC), 100 pmol probe in 20 uL; 10 min RT then 5 min 37 C; 5% PAGE in 0.5x TBE at 4 C
Settings: protein: recombinant; chain copies: 2; blunt

RXRα S427F, sequence (P19793 whole entry S427F): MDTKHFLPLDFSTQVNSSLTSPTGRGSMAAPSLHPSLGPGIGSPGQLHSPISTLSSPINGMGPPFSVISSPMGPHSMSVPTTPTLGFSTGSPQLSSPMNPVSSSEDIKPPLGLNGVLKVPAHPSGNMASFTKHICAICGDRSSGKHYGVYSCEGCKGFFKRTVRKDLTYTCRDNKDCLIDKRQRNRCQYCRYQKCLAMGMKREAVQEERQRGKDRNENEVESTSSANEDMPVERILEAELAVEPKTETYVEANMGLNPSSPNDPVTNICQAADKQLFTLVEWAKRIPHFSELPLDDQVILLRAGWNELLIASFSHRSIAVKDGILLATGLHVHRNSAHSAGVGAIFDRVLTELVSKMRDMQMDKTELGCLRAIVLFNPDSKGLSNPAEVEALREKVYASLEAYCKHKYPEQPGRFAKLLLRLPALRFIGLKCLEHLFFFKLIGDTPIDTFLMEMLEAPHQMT

B1: DR1 (dsDNA)
DNA 1: TCGAGGGTAGGGGTCAGAGGTCACTCGTCGA
DNA 2: TCGACGAGTGACCTCTGACCCCTACCCTCGA
**Q.** Does B1 bind?
**A.** binds
